Measured values taken from the DeepSol protein solubility set.

Assay: soluble on expression in E. coli; label from the status in PepcDB or PDB records

Sequence | soluble on expression in E. coli
MAHHHHHHMTELLSAGEVQHPCGWAFAFPFVKRVPPAKLVRLLGTATLLDRIRENDPTLRSVRLDYELLPREEIMQALLGNNTISSVVIARVIPRNSTGTDFARFLESLYHLPLRSVQVQDGEKLPSSYLNHLLYLVEYCSGVGKACKWTDGKCYAGADLNTGNTTTEINDAEEFNGNNSREDVDSEVLDYKRGAVLEFVDFSGCRLTVRQAQWLGDILFHRRCTLRHVNACECRLGNGGVRALLRRVNTSPRLKAASIAEGSVVPLDMIELRWNGVTEDESIRNFVDVVERSPDCWTCMTVYGNYISPHMYTRCEAQVVKAKRLMEEERLKRREIPTNVEVAQPDGRLSSEKGTSCSPRRYFVDLLTSVAGEVDFVCPSLRAVSSLLHEEP | not soluble
MAHHHHHHMTENFLIFGLPFLPQCNDTLPSSQFKCLVAEMGPLGQALRPFVVPTLKVGTLDSLIEASDELAKLDPQLENNVEKLIALMEETSQKPRSVVSALRINQTQEMTPAAYIKNFLWSSAQFDTREKIQSLIEKLSQISASIEERIRVLLSEYNETRNRLTAVNRKTQGNLSVKPIRELVASYNQKFQCFVDTEMLVTLFVVVPLASQKEWLETYWSLNEFVCPQSNRVIAEDKECVLNSIVTFRKAMDDVKMICRKKRFTVRDIDGVDDLSVAEVKELNQKAEKERKALYTVLWQQYSLCYVAWVHVKALRVFVESLLKYGLPPRCISVVLQVDGKKEAEIRKKILQIYPNLISPLTNEPPTDTGMLQYEYPYVSLKVTNFQKD | not soluble
MAHHHHHHMTILSLHGRNGADAQKWFESGLLPFPGGQKSFEMVSVMPALVYHHCMLYWAKLGCAALLQEGSVEMTGKAGSETLMFVVRNICCIQIAESPRCLPNWRLLDRVLDELLKRLDFVANCEDGVWSFASTTMRRMQCYLRSNIIRYLEVRDRPLEGQCGLLRYRGAFDCAINGVNSSGASGMGGCQTTDEVHVEVLSAETLRSAVQVMCGCDGVKVPCGDSSGGVKDGADALADLELEEFFCRYFLCSAPAAFDQPTKPTVRE | not soluble
MAHHHHHHMTLTSRTAQAAHAQNDVAAQRPPPPLYPSMNVGASAVHPHQNRPCHAYDSQPAWQNPQLGTAPPAVIAGAPLAPEQQQQQTHQQGRSNQPQSIFGGRFTLLDRLGSGGFGEVYRAEECDQLVPLAVKVERVTDTNALPEQSFLFHEAKVMQEIHKSIQAYMAAQQQHQLLRLQQEKAQSGNGRRANNEAAAAADEVRQEKVGIAKLKYYGQDGMSRVLIMSLHGQSVANVHRHQGRLSLFATVMIADQVLRSLEHVHRAGYVHADLKPDNILLGREDPEQLYLVDFGLSVHFRDRKGKHRPLVTNHSFVGTPRYASLRTHMGHTLSRRDDIEQLVYVMIYLFRGRLPWSGLRISDPDAKEKRIAQMKAEMTLDSICAGCPEAFRDVLNYARCMEFEEEPQYQFLHVLLCSLRDSCTELSSDPSCVPANGSGGVMPQMLTLNVNCSTRQHPKDQNGGDAAANGGAVGVTAAEAGLVQNTNIVSGVVEQIDGVAENPMMMSSRGTGAPAFFSDAIGQGFLSGNGTDAGPLSPRIDCLNGQPFSPPPLDLQRPCGSPQLRQMR | not soluble
MAHHHHHHMTTTASPQTGSSPTVPTPVAPPSIDEALSYWIGLSRLIHRVCVTSDSTPSADEGEPSTFTRYALHCVLLCCGIKQHRVRQTADHMLAQLLSAAYTTAAALTGPVVLLDSESPASTPFRSPVRQLPVPLPVLVADWLKQSSADDQKASQHNRYCLRVPAVTWTRSIIKWLGSELRGQMISLRPLSRWNMVCAQQSGRMPVVIFVGGASGAGKSTLASLVASQLRVPNVLSTDTVRQVLRARLCGHEAQFPALFVSTYEAHKVTADDSHASADDGSAVPHAQSADENAIVQGYEAQCELVLRVLDGMLARLLARRESIVVEGVHLLPRYLAAKRAELLVSRVACVPVLVRIPKADSHLERLCIRARGMSMRAQNNKYIASFKAIRAIQAHLVDSVEAASLPVLVLSNTNMDKSFTALHHTLLETMEYAAVHGWPADAAAAADVPLTGLVFRAVKDRLVAVVRQRRWRRSATNDNISTSSGTGASAPGDEEKGGVATGPFSALVLAPHARPPVHSPAGSSNGAAPRARSAELLGVVQRCLLEQGLRYHSRTSNAQVDAATVYGSSGVLGARDASSRFHAHVVIRRSFTIAAKSHISMTASSHLPLDNHNEEFDELEIPSLIGS | not soluble
MAHHHHHHMTTYTLVLLRHGESTWNKENKFTGWTDVPLSEKGEEEAIAAGKYLKEKNFKFDVVYTSVLKRAICTAWNVLKTADLLHVPVVKTWRLNERHCGSLQGLNKSETAKKYGEEQVKIWRRSYDIPPPKLDKEDNRWPGHNVVYKNVPKDALPFTECLKDTVERVLPFWFDHIAPDILANKKVMVAAHGNSLRGLVKHLDNLSEADVLELNIPTGVPLVYELDENLKPIKHYYLLDSEELKKKMDEVANQGKAK | soluble
MAHHHHHHMVEEVTIGRDFVTVRRVDDDDTAAAVRQYAVRLGGNPTATPEETAERSAALQRKVMDAMEENCEQVKTLSGRNDPNESVDGGGENTEDNLGSQGGVALDSVDEAALRDLVRSTHWSELKLHVSALLTDHLYSGRAHIDADAPHPHPDTIPQDGDSEVVVVLKELISTTIRPQLQADGGDIRFVGLADSVMLVEMLGACRKCRSSKTTLRDMIERTTRHWVPEVQKVEEVER | not soluble
MAHHHHHHMVENKSKVKDISLAPFGKMQMEISENEMPGLMRIREEYGKDQPLKNAKITGCLHMTVECALLIETLQKLGAQIRWCSCNIYSTADYAAAAVSTLENVTVFAWKNETLEEYWWCVESALTWGDGDDNGPDMIVDDGGDATLLVHKGVEYEKLYEEKNILPDPEKAKNEEERCFLTLLKNSILKNPKKWTNIAKKIIGVSEETTTGVLRLKKMDKQNELLFTAINVNDAVTKQKYDNVYGCRHSLPDGLMRATDFLISGKIVVICGYGDVGKGCASSMKGLGARVYITEIDPICAIQAVMEGFNVVTLDEIVDKGDFFITCTGNVDVIKLEHLLKMKNNAVVGNIGHFDDEIQVNELFNYKGIHIENVKPQVDRITLPNGNKIIVLARGRLLNLGCATGHPAFVMSFSFCNQTFAQLDLWQNKDTNKYENKVYLLPKHLDEKVALYHLKKLNASLTELDDNQCQFLGVNKSGPFKSNEYRY | soluble
MAHHHHHHMVFDVNGDFVENEQQFIEAARKSINLTIKLQNTSGMSELIARVLEDDDRRASGAISTSALDFDELLRTTPRFNFLSGDHPIFRRYNKRLAQQRQAAALIAQRTAEAELQRQAEIKERLRKALEEEAAVQKKKEQEKAELQRMRAAQEPARFVPEEPFLKIIKDESSFGQVERELKKPETAAEPKVESKAEGAASEAITNTATGTSTTLSNDVAATISAEELLVLVGVPTETMETTTPALEDLAEAIALPSSENTATYVALPAEEYTLCSGERVVSVIKKRSGPIPAPPPGTPPVINKAAASRLSEPVKRVKPVEKMVRNCTPSNEQPYKSRHRSRSPRSRRRSERDHSSKECSRRHRRDEPSSHRHHKNSRDSKHRR | not soluble
MAHHHHHHMVHKKQAWAKRVKKERFKKKFLTRMQATRLLQMESVQFRRLCILKGIYPRALNRSKQKQSGNEKQYYLAREIKWLVRDQIAEKMMAYRAWEKKVKRAEAMGRSEDLKVLQTSRVKPRHSLVATIKERYPYFIDAIRDVDDAMSMIHLYAFLSPEIKSDTTIEIHHSLTSGLSERAKEVCERWDRYVARARVLTKGFISIKGYYYEAIVKGERVRWLCPHEYAHRFPPGIQQYVMLSFLEFYLEMMKFVLFKLESDLARDEADRLAAEDEEGVTRANAEDFANGAALAVLDVGANQAQAKAVKEAESKRSLMEEELHKVRELFRGLTFFISREVPAKHFALVINACGGRVATDYVPSNITHVVVDRPALPPGMKKHDQLEYVQPQYIFDCLNARLVLPVTGYRIGEELPPHVSPFSVSITNSAEDNAAVVQVKKDHPRIVGYVPARVHEIRKLINPSYSAVDPEGKVAHLEDEYSDEESHVAVPEMDMEDDVSLSGDELAEARRKPAWQEEEVTEEVQRPKLSAFKVKKQREMNLMNAPTNEVVARRRQALRKAQEKSRQTETSEARLQRKMSEVKRQEAATRKMQLQVARKKAARFYKMVSGVVQGTAKKVATLEAKAKHIAEGKLRKTEDGKGLVNKRLEARRQRAEAKGKKLKERKAGNPYKKLPKWVQ | not soluble
